From a protein production outcome set (Wang et al. 2014)

Experiment: label from the status in PepcDB records
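Further: failed if final PepcDB status was selected cloned or expressed and not failed if soluble or beyond.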

Sequence | protein production
MSQFPLISVMTFLPLLGVVLLFFVPKQSHSVHRMLALLVSLVTFVVSIPLVTGFQSNADFQFVEKMPWIAAGPFQMNYHVAIDGISLWLVLLTTFIMPIAILSTWTAVEEKVKEYMICLLLLEVGMLGAFVSLDLFLFYIFWEVMLIPMYFIIGIWGGKNKIYAAVKFFIYTMVGSMLMLVALVTLYFKAGAGDFNVLRFYEVTLDPATQVWMFLAFALAFAIKVPMFPLHTWLPDAHTEAPTAGSVILAAVLLKMGTYGFVRFAMPLFPDATDKFTPLIATLSVIGIIYAALVAMVQEDVKKLVAYSSVAHLGYVMLGVFALNLQGLSGGMLQMLNHGVSTGALFLIVGFIYERRHTRLITDFGGLAKQMPVFATIFMIVTLSSIGLPGTNGFVGEFLVLLGAFESELRWYAVIGTSGVILAAVYMLWMFQRVMFGELTNPKNQTLCDLNAREVGIMLPLLVLIFVMGVYPTPFIEKMSPSLEKLIVHVKTKQQGAVAQVETVPAAPQVMPAAAVVPAEHK | failed
MRRKNLFWDDVYKGTPPWDLDHPQPAFEALIKNGEIKPGRALDIGCGRGENAIILAMNGCDVIGIDLAENAISDAKAKATERHVKVKFVVEDALQMNRLFEEGEFDVVIDSGLFHVMMDEQRRVFAQQVHRVLREGGKYFMLCFSDKEPGEYELPRRLSKAEIESTFSPVFDITYIKEAVFDSLLSPSRRKAYLLSATRSLEHHHHHH | failed
MTQAASAAPQSAHSAKWKWAKRAFTAFFFIAVPVLLFMLVKNLDWQEVKKALASYKASTLAIAAVVAFASYATYCGFDILARYYTRHKLSIKQIVPVTFVCYAFNLNLSSWVGGIALRYRLYSRLGLEVSTITRILSLSLITNWLGYMLLAGFVFSMRFLELPEEWSIGTTTLQLIGFGLLAVCFSYLLACRFSKKRSWTIRDQEFNLPSMKQALMQASLGALNWALMAAVIYTLLPDKAFYPAILGVLLISSIAGVITHIPAGLGVLETVFITLLSHQFSKGSLLAALIGYRAIYFLLPLMIALVVYLVLEKRAKKMGEKNQRRMGQEANS | failed
AIARSEWPFDYASEADAMLHRITPENFEKLVRFAARLLRVGEIIALPTDTVYGLAAAARNSHGIELLYQTKQRDLRKPLAIAVPSVEDVSVYLHTEHLPPGLLEAILPGPLTLLLRQREDYVGIDLQDVRIDQYRGWERAKRLAPNLNLRRDGLLGVRVPDASFACAVSRELGDPLALTSANVSGRGDCGSVDEFRALWSACAAVFDGGAMPKPVMPSTVVDLSVPGTFRITRAGWMATDLVRILENKFGLTNKSANTSN | failed
MITNAFNEYKNEYAFDNVYGHLIEILKRNLDISTESGVVHLDIGCGYGAIAEHITGEVGRVYVGIDANKSGLKSLKDRGFETHEHFLESQEDALSFFERVIGDRKLGSISMLDTLEHLPNGLSILKAIATLASKHSAMVAISVPNIQHRDIGFKLALGSIAYTDAGLLDHTHVMMYDYDHLDRVLRHAGLRICDQNHVRVNHSDQFFPRDHPVLQNATTIRTFLKYVRANVNDQDQINQFVVAALPCEPITGPTFEAVRDVDRPFLSIVTRTQGKRIHTLVEYFTCLAGQVCRDFEVFVVGHRLSLERQIAIEQVIEDLPLWLRDKTKLIRVDHGNRTHPLNVGFAQANGRYIAIHDDDDIPMGHWVDSFRKLAIENDGALLRCVSSLQHVETVSLRGRDGVRSIGKTGPFPSEFDFIQHLSGNYSPNNTLAFPRGVFHHLNMRFDENLTTTEDWDYIMRVASVVGVASSPEITGTYQWWEKGNSLAMHTDNEWALNKAWIQEKLDARPILIPAGTVRKILSLWEHANNVATQLDAVSHRNAIIEGQLGAMSQYDIDVQAQMKAISDHVNFLKSEIDRNRNEAVDQQYLLREIGDIIDSTSWKLSAPMRWPKRILGARSSRLTDHLGSSVQQLQETKRRLLSSRSWRATRPMRAVARLFKVHPI | failed
MRRICKVLMVIISIILGSGAPLNMAIPPLLALAAPDTSSSSTMSSSAISKVTDTNVMAVSADVTSTTDTSDTSSSDSTSATSTTTGNDTTETADTAVESGTVGTVAWTIDDAGVLTLSGGSFADLTGKRSPWYDYASSITNIKITDEITVTTASNYGYLFASLANVATVTGLNKLSMSGVTSTQSIFYRDSKLTSVDFGQTDFSTVTTMESMFEGCSVLTKVNTTNWNVSHVKSFKRTFYMCGKLTMLDVSNWDVTQVTNLDSTFSGCSSLPELDVSRWNTANVTTLASTFYSCSSVKIINASGWDTARVTDMTATFMNCTLATELNVSGWDTAKVTSMSRMFFYCENVIQLDVSGWITSQVTSLGSMFQNCSKVVTLDVGTWDTSKVTDMSFLFGGCSSLTTLNLEKWDTGSVTTLYSTFYNCSGLTSLLVDTWDTSKVTNCFWTFGGCSSLTTLNLRSWDLQSATASYGNFFNGSKKLQHLTLGPNFTFHNDKTMYLPEPSKQLPYNGTWQRNNDDPTYTSAELMTNYDGATMAGTYNWVKTSGTVLVKYVDGDGVEIADEETSSGTSGDAYQTTAKTIDGYTLHATPTNATGTYDASTITVTYVYDGNLFFNSSPTMLDFGSHTISGTTETYAPTLDKTLAVQNNGQISSTWNLTAELDSSGFVGADTGKMLLATLYYQTDDGKMTLSPGVAVQVYSQTTTDHKSVDISEHWSSNLGLLLEVPNGAAMADTYQGTISWRLNNTVANN | failed
MMQPLQLSAGGFAVVLGTNEIASAVAVHLHREGCCVVMSHDPFPPVIRRKMAFHDALYGDEVTVEGVRGERVDHATQIFKALRRSDNVLVSWLALPDLLPIGAVDVLIDARMQKHRVTPDLRGLARISVGLGPGFSTAVNCDVAIETRPGRSGLIVGAGWTDAADGVASPLGGVGAERFEYSQASGRWRTAVEIGSRVFSGFTIGHLGGVPVRAPCDGILRGVVRDGQDVPQGVKLLEVDSRGRHAQWTGIDDRGRGIAKAVLRAVQPQAEIRTSYAAQPIAVFLEHHHHHH | not failed
MGWVRTKALTMEQPSAPSLTRWLFAGVLMAIIGVLLFILHASGTVKIISVINIWWVSLMPAGCWLLIFCLRCYLWDRDLKAHQFLLKEAEYGQQRWEDWAGRWLAVLSSAVLLPDHISAAHWGSERPQQYGLARRINYLPVEEPVQLSAMHALLTSIEERVQCLPEELPLYVTLITDNPSPELTSSFSNLWKEHIPGRAVPDDITVTGSFSLSEVEERLKQPVLTVNLLLVIQLNGGTAYSDGLAVLLLTSDDVAQKYHLPHSSRLLRPMPLDMTNFEDDITLFLETQTVACQTPSVIGDAKKWTERSAALITQGGKMHTPWKAEDIALLEKWCGIPGPAAPWLLTALAADLVSLRKQPLLALFSSEQEHFISTITPGSEDDYTG | failed
MIRKLMICIAVLVGFCPMAWGTVDDVPNPKTYDADNWVSDPDHILDSETKNKINDILQQLEDSLTIEVAVVALNSIGEEEPHEFAVTLFNLWGVGKAKDDNGLLILLTRDIRDITFKTGYGLEGVLPDAICKRIQMETMVPHLRENDWNTGMLEGVKAVAAVLYGSDYQAAPPEAWIKKFRRTTPSLVFIVFALMLILINWLVWKSAVHRMTPKDEGTEAALALLATRNPFTARTLLGLCWLVPVWPAMLGIACWYFGIQKQKTLRRSRTCPKCNRETLREIPLHELIKDTKRLTESERKETELKTAYIRIYRCSACSEEVKIRIPLEKDGYECCPSCGHMTLHKEEKYRTIIKATTSSEGLMEARHRCMYCDAEYMVGYTIPKINPSSRRSGGSGGGGGGSFGGGSSGGGGSSSRF | failed
MTQLIKSLPGWLKLMLIFPIFFLNGVLLSLIINRFRELFDYIIIATLVTFLLKLTINFLVSKGIGKRLAIFAVITISFALIALGGITLIPLMGNQLGNLSQDIPRWLSGSQEHLANLKNSTLFLTLDNAGVNVDDLFQKAYLTLSKELDRIGQISLKVLTETIGGVVDTLVILVLTIFLLVGGDTFWQGILSWLPSPWEKKIPQYAGEIFRDYFISRLILAAGSSMARLVVFMALGIPYSILFAFSLGLASLIPFAGAVVTLIGTLVLLLKGWVVAVKFFVSAIVIDQITDNGVAPKLMGDKIGLNPVWILISIFIGAEIAGLLGVLLAVPIASVIKKVIDDMRAGKTENEEIDTEEQVEVLPESLA | failed
MNPADWIDTGAVPPRPLPAKVDAALAYLAEALGHPVYAHWTLTRIKRRYGSLADAKAAQPTVLKLLLTHDGAVEYWERGRLRTAPADQAPSPDAVLARLLHTHRRRFRSADASANAGAVPATAQTTGLVANPWLAAHSHADHAWLARTGRFAQPQAAANTLGAVDDAQALALFLRDRTGRSSHTLRAYGAELRRLMRWCGTHGFGPFSDLTRQQLLAYRHTLEHGSSGTANTTPPLSEATRTRALAVVASLYGYWYATGYLHANPAAGLSAGSRARSGFVPTRLIPSALLDACDAWLDANSAGDLLPALRQRAIWALYRYAGVRLAELAWSAETALPRLEAEAPGRWTLYVCGKGRKVRAIPLPAQCMVVLRAYRRARGLPPEPSAHETLPVIHGSKGEALQQTGLYREIKAIFAVVADGLQAREPAKAMLLRAASPHWLRHAYARTLVVDHQVPLPAAQALLGHASVQTTAAYAKTDLTQLRAFVDATFADDVP | failed
MSENQSEEVQQIEKLYEFSERLNASKDKSQNVEDYEGIIKMSKTSMKAKQLASQLIPRYFKFFPSLSTEAFDAHMDCIDDGDLGVRVQAIRGLPLFCKDTPDILSKIVDVLVQLLNTEEPVERDAVHKALMSLLRQDPKASSTALFTHAGVTPTTDDQIREKVLNFIRDKVIPLKGELLKPQEEMERHITDLIKQSLEDVTGGEFKMFMDFLTSLSIFGGKAPPERMQELVEIIEGQADLNAQFEFSDTDHIDRLISCLQLALPFFARGAPSSRFLIYLNKHIIPVFDKLPEERKLDLLKALADISPYTTAQEARQLLPSIVELLKIYMPARKTGEEMNFTYVECLLYAFHHLAHKVPNATNSLCGYKIVTGQPSDRLGEDFSELNKDFTERLTIVEDLTKATMKKLTQGMTEHNKAMSAAKTDEEKASIVSTLTCAIFYFS | failed
MITAFVLIRPRGNRVQALGEAIAELPQVAEVYSVTGPYDLVALVRLKDVEELDDVVTQGILSLEGVERTETLLAFRAYPRRLLDQGFALGQG | not failed
MGFYLGITALKSIGNNKNNNIDNENNHQAKILTFPVSFTCRTFLPARGDILQGTVKKVLWNGAFIRSGPLRYAYLSLLKMPHYHYVHSPLSEDEKPHFQKDDLSKIAVGVVVRFQVLAVRFKERPHKRRNDYYVLATLEGNGSFGP | not failed
MKIELLLLFLVFAWDGYFFLRYIIGLTRKYRTIQWNPTVSVIIPAYNEEENIESAIKAALSQDYPVSEVIVVDDGSEDKTYERALRMAQEDTRVKVIRIPHGGKARALNEGIKVARGEIIVTTDADSYMAKDAVRRLVERFYSPDIVGVGGQIRVVVESFLTLVQDIEHLRIAMYRRAKELEDLSLAPGPLSAFRREALDQIGGIAESIVEDYATTKLLKKVGKVVYAPKAKLFTRMPITLKELWRQRKRWFIGDLNHLEPKDYAILMLSDFIAFLDVILPLLFIVRGEFLLLGAFFGFEILTMLPPIIFEGGSIIEALSFPFILIFLAMFYLGIHIYGYLTKLNAKIFK | failed
MDFSVLLASLGISILELSEASAVAVIFQGIYKNSKPFLYAIAGILIVLVPVFTLGQYIVLLPINYVLLVAAVILAYFGYKLLRSARRSFKGSKKKHEEKEEGIMTVFVVSATEALEAGLVILALIPQSFSSALLGTGIAVIIVIALTIALRSQIMKIRVPHLKFVLSALLFGLATLFVAEALVDIDEVFLPLFFVIYLGVNYLVIKL | failed
MDGGFVRVCLLASGSKGNSLFVESDGTRVLIDAGLSAREIVRRLAVIEVEPADLDGLFISHEHVDHVRGVGVLARKYRLPVHVSYPTHHEVREGFGDAPVVEFESGYSFGFRDLLIDPFPITHDACDPVGFTIESKEGKVGIATDLGTATRLVADKLKRCRVLVLESNHDEEMLMGGPYPWHLKQRIKSRHGHLSNNDSAALLAEVLHPGLEGLFLAHLSEVNNDPAVAKEVAENLLVAQTTCSPRLIVGDQYRPSETLTL | failed
MKINQLWQEPKQRSKRYYLLDNIFSAITHGIGFGLAIAGLVVLIVKAAHTGSPMRIVTFTIYGACLVLLYLFSTLYHSLVFTRAKNVFQIFDHSSIFLLIAGSYTPYSLVAIGGVWGWTLFGLIWGLTIFGIIYYVFNRGKHVIFDTILYVAMGWLVILSGPYLYVRLSSTGFWLLVGGGIAYTIGAILFSMRSVPFIHTIWHLFIILGSILMYFSVLLYV | failed
